Measurements reported in patent US20120282271A1 (Genentech, published 2012).

Target: T1, Ron (Sema IPT1)-IgG fusion protein (human, UniProt Q04912 25-683, limits assumed)
T1 construct: domain: Sema IPT1; Captured on the chip or plate through an anti-human IgG (Fc specific) antibody; also called Ron-Fc; human Ron; not shown: IgG (Fc) portion, captured by rabbit anti-human IgG Fc antibody
T1 sequence (looked up): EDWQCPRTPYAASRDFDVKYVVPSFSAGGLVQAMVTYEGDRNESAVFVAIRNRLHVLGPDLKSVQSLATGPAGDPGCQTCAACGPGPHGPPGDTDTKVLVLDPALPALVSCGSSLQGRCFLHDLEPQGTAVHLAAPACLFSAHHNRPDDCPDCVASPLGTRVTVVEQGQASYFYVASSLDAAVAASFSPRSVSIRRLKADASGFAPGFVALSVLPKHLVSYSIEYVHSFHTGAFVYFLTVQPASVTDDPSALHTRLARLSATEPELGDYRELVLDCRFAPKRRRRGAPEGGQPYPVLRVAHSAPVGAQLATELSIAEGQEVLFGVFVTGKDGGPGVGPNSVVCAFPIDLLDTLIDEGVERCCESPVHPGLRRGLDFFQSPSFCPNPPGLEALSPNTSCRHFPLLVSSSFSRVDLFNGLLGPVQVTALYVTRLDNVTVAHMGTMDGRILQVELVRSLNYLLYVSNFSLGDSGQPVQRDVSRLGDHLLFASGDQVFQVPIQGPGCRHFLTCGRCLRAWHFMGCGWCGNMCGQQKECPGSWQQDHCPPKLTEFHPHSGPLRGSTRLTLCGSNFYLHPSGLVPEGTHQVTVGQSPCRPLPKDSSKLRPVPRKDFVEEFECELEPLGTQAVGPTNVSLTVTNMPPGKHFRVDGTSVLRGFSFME
Assay: ELISA, Ron (Sema IPT1)-IgG captured on an anti-human IgG Fc coated plate, His tagged MSP detected with anti-His-HRP, four parameter fit; ELISA, not SPR; printed only as 'MSP'
Experimental: To determine binding affinity of hepsin-activated MSP to human Ron, surface plasmon resonance measurements on a BIAcore™-3000 instrument (GE Health Care, NJ) were performed. Rabbit anti-human IgG were chemically immobilized (amine coupling) on CM5 biosensor chips and the Ron (Sema IPT1)-IgG fusion protein was captured to give approximately 250 response units (RU). For kinetics measurements, different concentration of either hepsin-activated MSP or a commercially available MSP (R&D systems) were injected in HBS-P buffer at 25° C. with a flow rate of 30 μl/min. Association rates (kₒₙ) and dissociation rates (koff) were obtained by using a simple one-to-one Langmuir binding model (BIA-Evaluation) and the equilibrium dissociation constants (KD) were calculated (koff/kₒₙ). […] Bound MSP was detected using anti-His-HRP (Qiagen, Valencia, Calif.) followed by addition of TMB/H₂O₂ substrate (KPL, Gaithersburg, Md.). The reaction was stopped with 1M H₃PO₄ and the A₄₅₀ was measured on a Molecular Devices (Sunnyvale, Calif.) SpectraMax Plus³⁸⁴ microplate reader. The effective concentration to give half-maximal binding (EC₅₀) was determined by a four parameter fit using Kaleidagraph (Synergy Software, Reading, Pa.). […]

B1: hepsin-activated MSP (recombinant human macrophage-stimulating protein, C672A, cleaved by hepsin at Arg483-Val484) (ligand)
chain 1: QRSPLNDFQVLRGTELQHLLHAVVPGPWQEDVADAEECAGRCGPLMDCRAFHYNVSSHGCQLLPWTQHSPHTRLRRSGRCDLFQKKDYVRTCIMNNGVGYRGTMATTVGGLPCQAWSHKFPNDHKYTPTLRNGLEENFCRNPDGDPGGPWCYTTDPAVRFQSCGIKSCREAACVWCNGEEYRGAVDRTESGRECQRWDLQHPHQHPFEPGKFLDQGLDDNYCRNPDGSERPWCYTTDPQIEREFCDLPRCGSEAQPRQEATTVSCFRGKGEGYRGTANTTTAGVPCQRWDAQIPHQHRFTPEKYACKDLRENFCRNPDGSEAPWCFTLRPGMRAAFCYQIRRCTDDVRPQDCYHGAGEQYRGTVSKTRKGVQCQRWSAETPHKPQFTFTSEPHAQLEENFCRNPDGDSHGPWCYTMDPRTPFDYCALRRCADDQPPSILDPPDQVQFEKCGKRVDRLDQRRSKLR
chain 2: VVGGHPGNSPWTVSLRNRQGQHFCGGSLVKEQWILTARQCFSSCHMPLTGYEVWLGTLFQNPQHGEPSLQRVPVAKMVCGPSGSQLVLLKLERSVTLNQRVALICLPPEWYVVPPGTKCEIAGWGETKGTGNDTVLNVALLNVISNQECNIKHRGRVRESEMCTEGLLAPVGACEGDYGGPLACFTHNAWVLEGIIIPNRVCARSRWPAVFTRVSVFVDWIHKVMRLG
notes: Made by treating recombinant pro-MSP (C672A, from CHO cells) with the recombinant hepsin extracellular domain; It is a disulfide-linked α/β heterodimer; also called hepsin-treated pro-MSP
B1 was tested, and the EC50 was 519 pM.
